Test results as given in US20220402989A1 (Regeneron, published 2022).
Blank lines part the entries; values can stand above or below the binder they belong to.

What was measured:
[1] = target: T1, human PD-1 expressed with a C-terminal myc-myc-hexahistidine tag (human); test: SPR (Biacore), antibody captured via anti-human Fc, hPD-1.mmH in solution, 25 C
T1 construct: also called hPD-1.mmH; hPD-1.mmh
Experimental: The CM5 Biacore sensor surface was derivatized by amine coupling with a monoclonal mouse anti-human Fc antibody (GE, #BR-1008-39). All Biacore binding studies were performed in a buffer composed of 0.01M HEPES pH 7.4, 0.15M NaCl, 3 mM EDTA, 0.05% v/v Surfactant P20 (HBS-EP running buffer). […] Antibody-reagent association was monitored for 4 or 5 minutes, while dissociation in HBS-EP running buffer was monitored for 10 minutes. […] All binding kinetics experiments were performed at 25° C.
Kinetic association (kₐ) and dissociation (kd) rate constants were determined by fitting the real-time sensorgrams to a 1:1 binding model using Scrubber 2.0c curve fitting software. Binding dissociation equilibrium constants (KD) and dissociative half-lives (t½) were calculated from the kinetic rate constants as: […]

[2] = target: T2, human PD1 expressed endogenously on YT/STAT5 luc/Cl4 cells (human, UniProt Q15116 25-288); test: flow cytometry (FACS) titration on YT/STAT5 luc/CL4 cells with endogenous hPD1, APC anti-human Fc-gamma secondary, MFI_APC
T2 construct: whole, on cells; also called hPD1; PD1+ cells
Experimental: To compare hPD1 binding of αhPD1-IL2Rα-IL2 proteins to their respective parental anti-hPD1 antibodies, YT/STAT5 luc/Cl4 cells expressing endogenous levels of hPD1 were washed twice with FACS wash (PBS+2% FBS) and resuspended at 1×10\hat{ }6 cells/ml in FACS wash. Cells (100 μl/well) were then plated in 96 well U bottom plates. Cells were spun down (1200 RPM, 5 minutes) and resuspended in 100 μl/well of the various antibody dilutions listed in mAb clone IDs. The antibody titrations were prepared starting at 20 μg/ml with a 6-fold dilution using FACS wash. Cells were incubated with the antibodies for 30 minutes at 4° C. The unbound antibodies were then removed by washing the cells twice using FACS wash. The cells were then resuspended in 100 μl/well of 1:200 dilution of APC-anti-human Fcγ secondary antibody. The cells were incubated for 30 minutes at 4° C. The unbound antibodies were then removed by washing the cells twice using FACS wash. The cells were then resuspended in 160 μl/well of FACS wash and run to test binding using BD FACSCanto™ Flow Cytometer.

[3] = target: human PD1 (amino acids M1-L288 of NP_005009.2 with a 2Q=>E mutation) stably expressed on engineered reporter … (human, UniProt Q15116 25-288); test: cell-based or functional assay
Sequence of human PD1 (amino acids M1-L288 of NP_005009.2 with a 2Q=>E mutation) stably expressed on engineered reporter … (Q15116 25-288, change not shown): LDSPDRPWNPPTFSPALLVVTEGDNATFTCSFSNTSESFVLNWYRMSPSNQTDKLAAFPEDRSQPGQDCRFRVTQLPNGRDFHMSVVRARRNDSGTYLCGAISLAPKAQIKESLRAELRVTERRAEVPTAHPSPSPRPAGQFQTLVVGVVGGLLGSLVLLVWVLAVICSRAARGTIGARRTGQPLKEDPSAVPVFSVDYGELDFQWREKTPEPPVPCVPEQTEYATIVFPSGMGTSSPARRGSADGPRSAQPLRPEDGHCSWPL

T2 sequence (Q15116 25-288): as the sequence (Q15116 25-288, change not shown) above
T1 sequence (chain, as listed by the source limits assumed): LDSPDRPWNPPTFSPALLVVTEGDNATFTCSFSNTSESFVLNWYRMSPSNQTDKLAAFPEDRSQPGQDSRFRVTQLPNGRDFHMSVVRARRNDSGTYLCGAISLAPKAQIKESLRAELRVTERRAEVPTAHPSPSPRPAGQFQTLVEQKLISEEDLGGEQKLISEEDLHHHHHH

90 nM or 100 nM hPD-1.mmH Bind (RU) [1]: 124 RU
Kd [1]: 3.1 nM
koff [1]: 0.000427 s⁻¹
kon [1]: 138000 M⁻¹ s⁻¹
t1/2 [1]: 27.1 min
EC50 [2]: 5.69 nM
Fold induction, AP1-Luc PD1 antagonistic assay [3]: 1.29 fold
B1: mAb29512 (antibody, V domains shown)
VH: QVQLVQSGTEVRKPGSSVKVSCKTSGVTFNNYAITWVRQAPGQGLEWMGGIIPVFSPPNYAQKFQGRVTITADESTNTAYMELNSLRSDDTAIYFCAREGERGYTYGYDYWGQGTLVTVSS
VL: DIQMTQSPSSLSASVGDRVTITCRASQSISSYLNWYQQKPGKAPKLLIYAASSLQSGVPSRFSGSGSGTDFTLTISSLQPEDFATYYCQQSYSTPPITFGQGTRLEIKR
notes: The full chains are those of H4H29512 (human IgG4 Fc with S108P); also called H4H29512

90 nM or 100 nM hPD-1.mmH Bind (RU) [1]: 52.7 RU
Kd [1]: 8.95 nM
koff [1]: 0.00123 s⁻¹
kon [1]: 137000 M⁻¹ s⁻¹
t1/2 [1]: 9.4 min
EC50 [2]: 3.48 nM
Fold induction, AP1-Luc PD1 antagonistic assay [3]: 1.24 fold
B2: mAb9048 (antibody, V domains shown)
VH: QVQLVQSGAEVKRPGSSVKVSCKVSGVTFRNFAIIWVRQAPGQGLEWMGGIIPFFSAANYAQSFQGRVTITPDESTSTAFMELASLRSEDTAVYYCAREGERGHTYGFDYWGQGTLVTVSS
VL: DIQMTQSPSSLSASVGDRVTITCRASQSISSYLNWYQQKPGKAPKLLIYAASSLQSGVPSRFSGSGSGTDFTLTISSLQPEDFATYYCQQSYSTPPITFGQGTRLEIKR
notes: The full chains are those of H4H9048 (human IgG4 Fc with S108P); also called H4H9048

90 nM or 100 nM hPD-1.mmH Bind (RU) [1]: 88.7 RU
Kd [1]: 2.56 nM
koff [1]: 0.000253 s⁻¹
kon [1]: 98800 M⁻¹ s⁻¹
t1/2 [1]: 45.7 min
EC50 [2]: 0.774 nM
EC50 (M), AP1-Luc PD1 antagonistic assay [3]: 3.67e-09 M
Fold induction, AP1-Luc PD1 antagonistic assay [3]: 19.2 fold
B3: REGN2810 (antibody, human IgG4 S228P, kappa, V domains shown)
VH: EVQLLESGGVLVQPGGSLRLSCAASGFTFSNFGMTWVRQAPGKGLEWVSGISGGGRDTYFADSVKGRFTISRDNSKNTLYLQMNSLKGEDTAVYYCVKWGNIYFDYWGQGTLVTVSS
VL: DIQMTQSPSSLSASVGDSITITCRASLSINTFLNWYQQKPGKAPNLLIYAASSLHGGVPSRFSGSGSGTDFTLTIRTLQPEDFATYYCQQSSNTPFTFGPGTVVDFRR
notes: Human IgG4 Fc with the S108P hinge mutation; also called mAb7798; cemiplimab
